Source: patent US20190233493A1 (Sanofi, published 2019)
*1 amine or outer side, *2 acyl side, *3 side chain or, on linkers, in order; H or OH if unused. Primed or numbered codes have the meaning given here. Side-chain parts run from the residue outwards. [ ]: non-standard residue; d: D form. The star is where a group is joined. γGlu = O=C(O)[C@H](CCC(=O)[*:2])N[*:1]; Stearoyl = CCCCCCCCCCCCCCCCCC(=O)*; Palmitoyl = CCCCCCCCCCCCCCCC(=O)*; αMeK = C[C@](N)(CCCCN)C(=O)O; Nle = CCCC[C@H](N)C(=O)O; PEG2′ = PEG2 spacer unit; PEG2″ = not defined here; Aib = CC(C)(N)C(=O)O

T1: RXFP1 receptor (UniProt Q9HBX9 1-757, limits assumed)
T1 sequence (looked up): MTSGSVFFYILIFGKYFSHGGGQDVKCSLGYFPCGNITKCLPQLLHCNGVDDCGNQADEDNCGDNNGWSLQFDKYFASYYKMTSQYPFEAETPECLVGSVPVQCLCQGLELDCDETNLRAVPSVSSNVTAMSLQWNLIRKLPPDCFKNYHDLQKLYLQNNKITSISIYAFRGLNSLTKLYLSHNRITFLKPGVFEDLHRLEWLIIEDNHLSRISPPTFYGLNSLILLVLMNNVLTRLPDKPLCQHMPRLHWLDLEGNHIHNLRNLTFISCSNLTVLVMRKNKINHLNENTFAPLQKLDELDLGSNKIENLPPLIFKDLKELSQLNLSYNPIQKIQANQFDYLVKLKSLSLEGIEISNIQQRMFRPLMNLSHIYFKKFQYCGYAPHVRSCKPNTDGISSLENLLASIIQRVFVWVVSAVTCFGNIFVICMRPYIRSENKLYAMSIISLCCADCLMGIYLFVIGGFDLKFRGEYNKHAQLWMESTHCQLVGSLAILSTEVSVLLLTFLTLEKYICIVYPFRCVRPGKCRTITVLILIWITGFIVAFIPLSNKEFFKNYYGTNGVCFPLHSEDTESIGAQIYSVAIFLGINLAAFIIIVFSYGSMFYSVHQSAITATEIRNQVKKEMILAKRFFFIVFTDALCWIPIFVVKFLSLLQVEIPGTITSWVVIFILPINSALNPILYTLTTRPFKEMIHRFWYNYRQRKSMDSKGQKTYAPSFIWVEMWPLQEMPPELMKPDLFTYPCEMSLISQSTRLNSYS

B1: peptide of SEQ ID NO: 1 (peptide)
peptide: Ac-LEGREKVRAAI[Aib][Aib]EG[Nle]STWS[Aib]RKK(Palmitoyl)-NH2
SMILES: CCCCCCCCCCCCCCCC(=O)NCCCC[C@H](NC(=O)[C@H](CCCCN)NC(=O)[C@H](CCCNC(=N)N)NC(=O)C(C)(C)NC(=O)[C@H](CO)NC(=O)[C@H](Cc1c[nH]c2ccccc12)NC(=O)[C@@H](NC(=O)[C@H](CO)NC(=O)[C@H](CCCC)NC(=O)CNC(=O)[C@H](CCC(=O)O)NC(=O)C(C)(C)NC(=O)C(C)(C)NC(=O)[C@@H](NC(=O)[C@H](C)NC(=O)[C@H](C)NC(=O)[C@H](CCCNC(=N)N)NC(=O)[C@@H](NC(=O)[C@H](CCCCN)NC(=O)[C@H](CCC(=O)O)NC(=O)[C@H](CCCNC(=N)N)NC(=O)CNC(=O)[C@H](CCC(=O)O)NC(=O)[C@H](CC(C)C)NC(C)=O)C(C)C)[C@@H](C)CC)[C@@H](C)O)C(N)=O
B2: peptide of SEQ ID NO: 6 (peptide)
peptide: Ac-ELEGREKVRAAI[Aib][Aib]EG[Nle]STWS[Aib]RKKK([γGlu-γGlu-γGlu-Palmitoyl])-NH2
SMILES: CCCCCCCCCCCCCCCC(=O)N[C@@H](CCC(=O)N[C@@H](CCC(=O)N[C@@H](CCC(=O)NCCCC[C@H](NC(=O)[C@H](CCCCN)NC(=O)[C@H](CCCCN)NC(=O)[C@H](CCCNC(=N)N)NC(=O)C(C)(C)NC(=O)[C@H](CO)NC(=O)[C@H](Cc1c[nH]c2ccccc12)NC(=O)[C@@H](NC(=O)[C@H](CO)NC(=O)[C@H](CCCC)NC(=O)CNC(=O)[C@H](CCC(=O)O)NC(=O)C(C)(C)NC(=O)C(C)(C)NC(=O)[C@@H](NC(=O)[C@H](C)NC(=O)[C@H](C)NC(=O)[C@H](CCCNC(=N)N)NC(=O)[C@@H](NC(=O)[C@H](CCCCN)NC(=O)[C@H](CCC(=O)O)NC(=O)[C@H](CCCNC(=N)N)NC(=O)CNC(=O)[C@H](CCC(=O)O)NC(=O)[C@H](CC(C)C)NC(=O)[C@H](CCC(=O)O)NC(C)=O)C(C)C)[C@@H](C)CC)[C@@H](C)O)C(N)=O)C(=O)O)C(=O)O)C(=O)O
B3: peptide of SEQ ID NO: 5 (peptide)
peptide: Ac-LEGREKVRAQI[Aib][Aib]EGMSTWS[Aib]RK([γGlu-γGlu-Palmitoyl])-NH2
SMILES: CCCCCCCCCCCCCCCC(=O)N[C@@H](CCC(=O)N[C@@H](CCC(=O)NCCCC[C@H](NC(=O)[C@H](CCCNC(=N)N)NC(=O)C(C)(C)NC(=O)[C@H](CO)NC(=O)[C@H](Cc1c[nH]c2ccccc12)NC(=O)[C@@H](NC(=O)[C@H](CO)NC(=O)[C@H](CCSC)NC(=O)CNC(=O)[C@H](CCC(=O)O)NC(=O)C(C)(C)NC(=O)C(C)(C)NC(=O)[C@@H](NC(=O)[C@H](CCC(N)=O)NC(=O)[C@H](C)NC(=O)[C@H](CCCNC(=N)N)NC(=O)[C@@H](NC(=O)[C@H](CCCCN)NC(=O)[C@H](CCC(=O)O)NC(=O)[C@H](CCCNC(=N)N)NC(=O)CNC(=O)[C@H](CCC(=O)O)NC(=O)[C@H](CC(C)C)NC(C)=O)C(C)C)[C@@H](C)CC)[C@@H](C)O)C(N)=O)C(=O)O)C(=O)O
B4: peptide of SEQ ID NO: 7 (peptide)
peptide: Ac-LEGREKVRAQI[Aib][Aib]EGMSTWS[Aib]RKK([γGlu-γGlu-γGlu-Palmitoyl])-NH2
SMILES: CCCCCCCCCCCCCCCC(=O)N[C@@H](CCC(=O)N[C@@H](CCC(=O)N[C@@H](CCC(=O)NCCCC[C@H](NC(=O)[C@H](CCCCN)NC(=O)[C@H](CCCNC(=N)N)NC(=O)C(C)(C)NC(=O)[C@H](CO)NC(=O)[C@H](Cc1c[nH]c2ccccc12)NC(=O)[C@@H](NC(=O)[C@H](CO)NC(=O)[C@H](CCSC)NC(=O)CNC(=O)[C@H](CCC(=O)O)NC(=O)C(C)(C)NC(=O)C(C)(C)NC(=O)[C@@H](NC(=O)[C@H](CCC(N)=O)NC(=O)[C@H](C)NC(=O)[C@H](CCCNC(=N)N)NC(=O)[C@@H](NC(=O)[C@H](CCCCN)NC(=O)[C@H](CCC(=O)O)NC(=O)[C@H](CCCNC(=N)N)NC(=O)CNC(=O)[C@H](CCC(=O)O)NC(=O)[C@H](CC(C)C)NC(C)=O)C(C)C)[C@@H](C)CC)[C@@H](C)O)C(N)=O)C(=O)O)C(=O)O)C(=O)O

target: T1, RXFP1 receptor; experiment: cell-based or functional assay

EC50 (nM), OVCAR 5 cells (cAMP) | EMax, OVCAR 5 cells (cAMP) | Binder
85.3 nM | 85% | B1
15.3 nM | 97% | Ac-LEGREKVRAQI[Aib][Aib]EG[Nle]STWS[Aib]RKK([PEG2′-γGlu-Palmitoyl])-NH2 [peptide of SEQ ID NO: 53]
1.14 nM | 87% | Ac-LEGREKVRAK(Ac)I[Aib][Aib]EG[Nle]STWS[Aib]RKK(Ac)K([PEG2′-PEG2′-γGlu-γGlu-γGlu-Palmitoyl])-NH2 [peptide of SEQ ID NO: 62]
18 nM | 100% | B2
14.8 nM | 83% | Ac-LEGREKVRAQI[Aib][Aib]EG[Nle]STWS[Aib]RKK([PEG2′-PEG2′-γGlu-γGlu-γGlu-Palmitoyl])-NH2 [peptide of SEQ ID NO: 58]
0.11 nM | 91% | Ac-LEGREKVRAK(Ac)I[Aib][Aib]EG[Nle]STWS[Aib]RKKK([PEG2′-PEG2′-γGlu-γGlu-γGlu-Palmitoyl])-NH2 [peptide of SEQ ID NO: 60]
0.84 nM | 80% | Ac-LEGREKVRAK(Ac)I[Aib][Aib]EG[Nle]STWS[Aib]RKK(Ac)K([PEG2′-PEG2′-PEG2′-γGlu-γGlu-γGlu-Palmitoyl])-NH2 [peptide of SEQ ID NO: 63]
0.2 nM | 81% | Ac-LEGREKVRAK(Ac)I[Aib][Aib]EG[Nle]STWS[Aib]RKK(Ac)K([PEG2″-PEG2″-PEG2″-PEG2″-γGlu-γGlu-γGlu-Palmitoyl])-NH2 [peptide of SEQ ID NO: 64]
0.51 nM | 95% | Ac-LEGREKVRAQI[Aib][Aib]EG[Nle]STWS[Aib]RKKK([PEG2′-PEG2′-γGlu-Stearoyl])-NH2 [peptide of SEQ ID NO: 56]
4.4 nM | 93% | Ac-ELEGREKVRAAI[Aib][Aib]EG[Nle]STWS[Aib]RKK([PEG2′-PEG2′-γGlu-γGlu-Palmitoyl])-NH2 [peptide of SEQ ID NO: 57]
75.9 nM | 95% | Ac-LEGREKVRAQI[Aib][Aib]EG[Nle]STWS[Aib]RKK([PEG2′-Palmitoyl])-NH2 [peptide of SEQ ID NO: 50]
19.3 nM | 94% | Ac-LEGREKVRAQI[Aib][Aib]EG[Nle]STWS[Aib]RKK([PEG2′-γGlu-γGlu-γGlu-Palmitoyl])-NH2 [peptide of SEQ ID NO: 55]
0.17 nM | 93% | Ac-LEGREKVRAK(Ac)I[Aib][Aib]EGK(Ac)STWS[Aib]RKKK([PEG2′-PEG2′-γGlu-γGlu-γGlu-Palmitoyl])-NH2 [peptide of SEQ ID NO: 61]
28.2 nM | 85% | Ac-LEGREKVRAK(Ac)I[Aib][Aib]EG[Nle]STWS[Aib]RKK([PEG2′-PEG2′-γGlu-γGlu-γGlu-Palmitoyl])-NH2 [peptide of SEQ ID NO: 59]
18.6 nM | 98% | Ac-ELEGREKVRAAI[Aib][Aib]EG[Nle]STWS[Aib]RKK([PEG2′-γGlu-γGlu-Palmitoyl])-NH2 [peptide of SEQ ID NO: 54]
86.8 nM | 105% | B3
71.2 nM | 100% | Ac-LEGREKVRAQI[Aib][Aib]EG[Nle]STWS[Aib]RKK(Ac)K([PEG2′-PEG2′-Stearoyl])-NH2 [peptide of SEQ ID NO: 51]
56 nM | 98% | Ac-LEGREKVRAQI[Aib][Aib]EG[Nle]STWS[Aib]RKK(Ac)K([PEG2′-PEG2′-PEG2′-Stearoyl])-NH2 [peptide of SEQ ID NO: 52]
17.6 nM | 87% | B4
0.12 nM | 93% | Ac-LEGREKVRAK(Ac)I[Aib][Aib]EG[Nle]STWS[αMeK]RKK(Ac)K([PEG2″-PEG2″-PEG2″-γGlu-γGlu-γGlu-γGlu-Palmitoyl])-NH2 [peptide of SEQ ID NO: 65]
